Experimental data taken from publication PMC11303537, “Deciphering the allosteric regulation of mycobacterial inosine-5′-monophosphate dehydrogenase” (Nature Communications, 2024).
Where “and” joins values, the source holds several entries; their conditions need not be identical. Identical values can stand only once.

Biological target: the molecule itself
Assay: cryo-EM structure; single-particle cryo-EM, MsmIMPDH octamer ~2.5-3.5 µM, 50 mM HEPES pH 7.4, 200 mM KCl, 5 mM DTT, 2 mM MgCl2 excess over nucleotides; datasets apo, ATP, ATP+IMP, ATP+GTP+IMP, ATP+ppGpp+IMP

B1: inosine-5′-monophosphate dehydrogenase from Mycobacterium smegmatis (enzyme, Mycobacterium smegmatis MC2 155, UniProt A0QSU3 1-513, looked up)
chain: MSIAESSVPIAVPVPTGGDDPTKVAMLGLTFDDVLLLPAASDVVPATADTSSQLTKRIRLRVPLVSSAMDTVTESRMAIAMARAGGMGVLHRNLPVAEQAGQVETVKRSEAGMVTDPVTCSPDNTLAEVDAMCARFRISGLPVVDDTGELVGIITNRDMRFEVDQSKPVSEVMTKAPLITAKEGVSAEAALGLLRRHKIEKLPIVDGHGKLTGLITVKDFVKTEQFPLSTKDSDGRLLVGAAVGVGDDAWTRAMTLVDAGVDVLIVDTAHAHNRGVLDMVSRLKQAVGERVDVVGGNVATRAAAAALVEAGADAVKVGVGPGSICTTRVVAGVGAPQITAILEAVAACKPYGVPVIADGGLQYSGDIAKALAAGASTAMLGSLLAGTAESPGELIFVNGKQFKSYRGMGSLGAMQGRGAAKSYSKDRYFQDDVLSEDKLVPEGIEGRVPFRGPLGTVIHQLTGGLRAAMGYTGSATIEQLQQAQFVQITAAGLKESHPHDITMTVEAPNYYTR
notes: also called MsmIMPDH; MsmGuaB2; source: E. coli BL21 RIL LOBSTR, purified (HisTrap, TEV cleavage, second HisTrap, HiTrap Q, Superdex 200); not shown: His6, N-terminal, cleaved
stoichiometry N: 8 and 4
